# According to article PMC4970216:
# B1: Organic anion transporting polypeptide (OATP) 1B1 (Homo sapiens) (protein)
# chain: MDQNQHLNKTAEAQPSENKKTRYCNGLKMFLAALSLSFIAKTLGAIIMKSSIIHIERRFEISSSLVGFIDGSFEIGNLLVIVFVSYFGSKLHRPKLIGIGCFIMGIGGVLTALPHFFMGYYRYSKETNINSSENSTSTLSTCLINQILSLNRASPEIVGKGCLKESGSYMWIYVFMGNMLRGIGETPIVPLGLSYIDDFAKEGHSSLYLGILNAIAMIGPIIGFTLGSLFSKMYVDIGYVDLSTIRITPTDSRWVGAWWLNFLVSGLFSIISSIPFFFLPQTPNKPQKERKASLSLHVLETNDEKDQTANLTNQGKNITKNVTGFFQSFKSILTNPLYVMFVLLTLLQVSSYIGAFTYVFKYVEQQYGQPSSKANILLGVITIPIFASGMFLGGYIIKKFKLNTVGIAKFSCFTAVMSLSFYLLYFFILCENKSVAGLTMTYDGNNPVTSHRDVPLSYCNSDCNCDESQWEPVCGNNGITYISPCLAGCKSSSGNKKPIVFYNCSCLEVTGLQNRNYSAHLGECPRDDACTRKFYFFVAIQVLNLFFSALGGTSHVMLIVKIVQPELKSLALGFHSMVIRALGGILAPIYFGALIDTTCIKWSTNNCGTRGSCRTYNSTSFSRVYLGLSSMLRVSSLVLYIILIYAMKKKYQEKDINASENGSVMDEANLESLNKNKHFVPSAGADSETHC
# Substrate: C[C@]12CC[C@@H]3c4ccc(O)cc4CC[C@H]3[C@@H]1CC[C@@H]2O[C@@H]1O[C@H](C(=O)O)[C@@H](O)[C@H](O)[C@H]1O
# Assay: cells, lysate or membranes
# Assay type: cell-based, Homo sapiens
protein,measurement,value
B1,Km,7.20 ± 0.57 µM
